Laboratory results from IntAct's records for PubMed 25752541.

B1: Coiled-coil domain-containing protein 8 (Homo sapiens), Q9H0W5 (parent)
chain: MLQIGEDVDYLLIPREVRLAGGVWRVISKPATKEAEFRERLTQFLEEEGRTLEDVARIMEKSTPHPPQPPKKPKEPRVRRRVQQMVTPPPRLVVGTYDSSNASDSEFSDFETSRDKSRQGPRRGKKVRKMPVSYLGSKFLGSDLESEDDEELVEAFLRRQEKQPSAPPARRRVNLPVPMFEDNLGPQLSKADRWREYVSQVSWGKLKRRVKGWAPRAGPGVGEARLASTAVESAGVSSAPEGTSPGDRLGNAGDVCVPQASPRRWRPKINWASFRRRRKEQTAPTGQGADIEADQGGEAADSQREEAIADQREGAAGNQRAGAPADQGAEAADNQREEAADNQRAGAPAEEGAEAADNQREEAADNQRAEAPADQRSQGTDNHREEAADNQRAEAPADQGSEVTDNQREEAVHDQRERAPAVQGADNQRAQARAGQRAEAAHNQRAGAPGIQEAEVSAAQGTTGTAPGARARKQVKTVRFQTPGRFSWFCKRRRAFWHTPRLPTLPKRVPRAGEARNLRVLRAEARAEAEQGEQEDQL
partner: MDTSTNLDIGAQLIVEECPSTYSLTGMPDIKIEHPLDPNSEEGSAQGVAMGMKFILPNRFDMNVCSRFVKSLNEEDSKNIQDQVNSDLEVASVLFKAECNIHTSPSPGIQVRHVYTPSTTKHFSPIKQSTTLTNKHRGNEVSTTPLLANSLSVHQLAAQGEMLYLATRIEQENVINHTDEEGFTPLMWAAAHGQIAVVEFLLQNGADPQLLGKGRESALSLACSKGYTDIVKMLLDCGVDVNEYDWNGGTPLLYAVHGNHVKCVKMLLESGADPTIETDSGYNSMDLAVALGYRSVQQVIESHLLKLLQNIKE
B2: Ankyrin repeat family A protein 2 (Homo sapiens), Q9H9E1 (parent)
chain: B1 partner
partner: B1 chain

Variants of: B1
Conditions: with anra2_human ANKRA2, Q9H9E1
In the case of MLQIGEDVDYLLIPREVRLAGGVWRVISKPATKEAEFRERLTQFLEEEGRTLEDVARIMEKSTPHPPQPPKKPKEPRVRRRVQQMVTPPPRLVVGTYDSSNASDSEFSDFETSRDKSRQGPRRGKKVRKMPVSYLGSKFLGSDLESEDDEELVEAFLRRQEKQPSAPPARRRVNLPVPMFEDNLGPQLSKADRWREYVSQVSWGKLKRRVKGWAPRAGPGVGEARLASTAVESAGVSSAPEGTSPGDRLGNAGDVCVPQASPRRWRPKINWASFRRRRKEQTAPTGQGADIEADQGGEAADSQREEAIADQREGAAGNQRAGAPADQGAEAADNQREEAADNQRAGAPAEEGAEAADNQREEAADNQRAEAPADQRSQGTDNHREEAADNQRAEAPADQGSEVTDNQREEAVHDQRERAPAVQGADNQRAQARAGQRAEAAHNQRAGAPGIQEAEVSAAQGTTGTAPGARARKQVKTVRFQTPGRFSWFCKRRRAFWHTPRLPALPKRVPRAGEARNLRVLRAEARAEAEQGEQEDQL [T504A], the “effect of a mutation on the interaction” value is reported as “disrupting interaction strength”.
MLQIGEDVDYLLIPREVRLAGGVWRVISKPATKEAEFRERLTQFLEEEGRTLEDVARIMEKSTPHPPQPPKKPKEPRVRRRVQQMVTPPPRLVVGTYDSSNASDSEFSDFETSRDKSRQGPRRGKKVRKMPVSYLGSKFLGSDLESEDDEELVEAFLRRQEKQPSAPPARRRVNLPVPMFEDNLGPQLSKADRWREYVSQVSWGKLKRRVKGWAPRAGPGVGEARLASTAVESAGVSSAPEGTSPGDRLGNAGDVCVPQASPRRWRPKINWASFRRRRKEQTAPTGQGADIEADQGGEAADSQREEAIADQREGAAGNQRAGAPADQGAEAADNQREEAADNQRAGAPAEEGAEAADNQREEAADNQRAEAPADQRSQGTDNHREEAADNQRAEAPADQGSEVTDNQREEAVHDQRERAPAVQGADNQRAQARAGQRAEAAHNQRAGAPGIQEAEVSAAQGTTGTAPGARARKQVKTVRFQTPGRFSWFCKRRRAFWHTPRLATLPKRVPRAGEARNLRVLRAEARAEAEQGEQEDQL [P503A] was tested, and the “effect of a mutation on the interaction” value was “disrupting interaction strength”.

Variants of: B2
Conditions: with ccdc8_human CCDC8, Q9H0W5
With MDTSTNLDIGAQLIVEECPSTYSLTGMPDIKIEHPLDPNSEEGSAQGVAMGMKFILPNRFDMNVCSRFVKSLNEEDSKNIQDQVNSDLEVASVLFKAECNIHTSPSPGIQVRHVYTPSTTKHFSPIKQSTTLTNKHRGNEVSTTPLLANSLSVHQLAAQGEMLYLATRIEQENVINHTDEEGFTPLMAAAAHGQIAVVEFLLQNGADPQLLGKGRESALSLACSKGYTDIVKMLLDCGVDVNEYDWNGGTPLLYAVHGNHVKCVKMLLESGADPTIETDSGYNSMDLAVALGYRSVQQVIESHLLKLLQNIKE [W188A] the “effect of a mutation on the interaction” value was “disrupting interaction strength”.
MDTSTNLDIGAQLIVEECPSTYSLTGMPDIRIEHPLDPNSEEGSAQGVAMGMKFILPNRFDMNVCSRFVKSLNEEDSKNIQDQVNSDLEVASVLFKAECNIHTSPSPGIQVRHVYTPSTTKHFSPIKQSTTLTNKHRGNEVSTTPLLANSLSVHQLAAQGEMLYLATRIEQENVINHTDEEGFTPLMWAAAHGQIAVVEFLLQNGADPQLLGKGRESALSLACSKGYTDIVKMLLDCGVDVNEYDWNGGTPLLYAVHGNHVKCVKMLLESGADPTIETDSGYNSMDLAVALGYRSVQQVIESHLLKLLQNIKE [K31R] was tested, and the “effect of a mutation on the interaction” value was “with no effect”.
